Literature values, collected in publication PMC2847397.

Biological target: Asp408 (UniProt position 408, GLLVDDAIVVV)
Assay: chemical modification

Substance: Multidrug efflux pump subunit AcrB (RND transporter) (Escherichia coli)
- pKa: 7.4
